Assay results taken from the supplement of paper PMC10567573.

B1: SPOPL (parent)
chain: YTGRAPNLDKMADNLLAAADKYAL

Variants of: B1
Experiment: protein stability index of a GFP-peptide fusion (GPS, HEK-293T) (PSI 1-6); higher = more stable
Conditions: c terminus: a fixed tail appended
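Also: lentivirally expressed fusions sorted by FACS into six bins by GFP to DsRed ratio, PSI derived from sequencing read proportions per bin multiplied by bin number.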

Variant	protein stability index
Y1W	2.94
T2A	1.32
T2D	3.75
T2E	3.81
T2F	2.47
T2G	2.79
T2H	2.4
T2I	1.98
T2K	2.49
T2L	2.76
T2M	2.24
T2N	2.93
T2P	2.75
T2Q	2.29
T2R	2.43
T2S	2.75
T2V	2.97
T2W	2.01
T2Y	2.15
G3A	2.17
G3C	1.64
G3D	3.99
G3E	2.94
G3F	1.93

Variant	protein stability index
G3H	2.5
G3I	1.86
G3K	2.18
G3L	2.11
G3M	2.68
G3N	2.83
G3P	2.14
G3Q	2.7
G3R	2.29
G3S	2.1
G3T	1.94
G3V	2.62
G3W	2.88
G3Y	2.82
R4A	2.38
R4C	2.31
R4D	3
R4E	3.04
R4F	2.12
R4G	2.74
R4H	2.04
R4I	1.96
R4K	2.41
R4L	3.6

Variant	protein stability index
R4M	1.69
R4N	2.09
R4P	2.75
R4Q	2.86
R4S	2.77
R4T	1.84
R4V	1.88
R4Y	2.02
A5C	1.87
A5D	3.19
A5E	3.58
A5F	2.31
A5G	1.93
A5H	1.47
A5I	1.58
A5K	2.01
A5L	1.77
A5M	1.51
A5N	3
A5P	2
A5Q	2.48
A5R	1.74
A5S	2.33
A5T	2.42

Variant	protein stability index
A5V	1.78
A5W	4.42
A5Y	1.41
P6A	1.88
P6C	1.65
P6D	2.31
P6E	2.82
P6F	2.09
P6G	1.68
P6H	1.09
P6I	1.85
P6K	1.43
P6M	2.2
P6N	2.49
P6Q	2.19
P6R	2.44
P6S	2.16
P6T	2.16
P6V	2.11
P6W	5
P6Y	1.75
N7A	1.98
N7C	1.86
N7D	2.34

Variant	protein stability index
N7E	1.99
N7F	3.09
N7G	1.89
N7H	1.68
N7I	1.81
N7K	1.68
N7Q	2.39
N7R	1.48
N7S	1.65
N7T	2.06
N7V	1.7
N7W	1.84
N7Y	1.27
L8C	2.28
L8D	3
L8F	1.9
L8G	2.81
L8H	2.38
L8I	1.85
L8K	2.16
L8M	1.8
L8N	2.94
L8P	3.29
L8Q	2.58

Variant	protein stability index
L8R	2.93
L8S	1.83
L8T	2.55
L8V	3.88
L8Y	1.36
D9A	2.12
D9C	1.99
D9E	2.24
D9F	3.79
D9H	2.17
D9I	1.37
D9K	2.34
D9M	2.23
D9N	1.65
D9P	2.36
D9Q	2.84
D9R	1.2
D9S	1.78
D9T	1.85
D9V	3.1
D9W	2.67
K10A	1.81
K10C	1.35
K10D	1.91

Variant	protein stability index
K10E	2.23
K10F	1.68
K10G	2.25
K10H	1.97
K10I	1.49
K10L	1.89
K10M	2.41
K10N	2.6
K10P	2.42
K10Q	1.75
K10R	1.43
K10S	2.83
K10T	1.75
K10V	1.75
K10Y	1.61
M11A	2.02
M11C	1.55
M11D	2.42
M11E	2.56
M11F	1.73
M11G	1.62
M11H	2.47
M11I	2.32
M11K	2.15

Variant	protein stability index
M11L	2.44
M11N	2.43
M11P	2.56
M11Q	2.34
M11R	2.05
M11S	2.62
M11T	2.62
M11V	3.05
M11W	2.21
M11Y	1.31
A12C	2.56
A12D	2.92
A12E	2.05
A12F	1.58
A12G	2.36
A12H	2.33
A12I	2.87
A12K	1.97
A12L	1.53
A12M	2.64
A12N	2.88
A12P	2.54
A12Q	2.07
A12R	1.56

Variant	protein stability index
A12S	2.2
A12T	2.97
A12W	1.32
A12Y	1.77
D13A	1.34
D13C	2.17
D13F	1.87
D13G	3.29
D13H	1.75
D13I	2.42
D13K	1.68
D13L	1.81
D13M	2.12
D13N	2.46
D13P	2.2
D13Q	1.91
D13R	2.66
D13S	2.04
D13T	1.91
D13V	1.73
N14A	1.69
N14D	2.25
N14E	2.16
N14F	1.84

Variant	protein stability index
N14G	2.05
N14H	1.94
N14I	1.85
N14K	1.73
N14M	2.37
N14P	2.2
N14Q	2.01
N14R	2.39
N14S	2.38
N14T	1.45
N14V	2.43
N14W	1.45
N14Y	1.86
L15C	2.87
L15D	2.83
L15E	2.92
L15F	2.23
L15G	2.35
L15H	2.38
L15I	2.25
L15K	3.64
L15M	2.19
L15N	2.74
L15P	2.43

Variant	protein stability index
L15Q	2.96
L15R	2.43
L15S	3.6
L15T	2.32
L15V	2.14
L15W	1.93
L15Y	1.98
L16A	2.24
L16C	1.59
L16D	3.83
L16E	3.22
L16F	1.22
L16G	2.94
L16H	2.97
L16I	2.33
L16K	3.18
L16M	2.37
L16N	2.22
L16P	2.32
L16Q	2.73
L16R	2.65
L16S	1.84
L16T	3.25
L16V	2.2

Variant	protein stability index
L16Y	2.06
A17C	2.28
A17D	2.7
A17E	2.98
A17F	2.04
A17G	2.79
A17H	2.08
A17I	1.58
A17K	2.28
A17L	2.34
A17M	1.4
A17N	2.44
A17P	1.95
A17Q	2.33
A17R	2.05
A17S	2.27
A17T	2.55
A17V	2
A17Y	1.62
A18C	1.51
A18D	2.62
A18E	2.42
A18F	1.77
A18G	2.61

Variant	protein stability index
A18H	1.96
A18I	1.42
A18K	1.77
A18L	2.7
A18M	1.9
A18N	2.01
A18P	2.18
A18Q	3.07
A18R	1.56
A18S	2.18
A18T	1.99
A18V	2.31
A18W	2.62
A18Y	2.25
A19D	2.76
A19E	2.33
A19F	1.5
A19G	2.23
A19H	2.24
A19I	2.76
A19K	1.64
A19M	2.22
A19N	2.49
A19P	2.7

Variant	protein stability index
A19Q	2.77
A19R	2.25
A19S	1.65
A19T	1.99
A19W	1.37
A19Y	2.11
D20C	1.99
D20E	1.61
D20F	1.39
D20G	2.29
D20H	2.14
D20I	1.71
D20K	1.4
D20L	1.84
D20M	2.22
D20N	1.3
D20P	1.41
D20Q	1.53
D20R	2.57
D20S	1.48
D20T	2.34
D20V	3.92
